B1: Multidrug resistance protein MexB (Pseudomonas aeruginosa (strain ATCC 15692 / PAO1 / 1C / PRS 101 / LMG 12228)), P52002 (parent)
chain: MSKFFIDRPIFAWVIALVIMLAGGLSILSLPVNQYPAIAPPAIAVQVSYPGASAETVQDTVVQVIEQQMNGIDNLRYISSESNSDGSMTITVTFEQGTDPDIAQVQVQNKLQLATPLLPQEVQRQGIRVTKAVKNFLMVVGVVSTDGSMTKEDLSNYIVSNIQDPLSRTKGVGDFQVFGSQYSMRIWLDPAKLNSYQLTPGDVSSAIQAQNVQISSGQLGGLPAVKGQQLNATIIGKTRLQTAEQFENILLKVNPDGSQVRLKDVADVGLGGQDYSINAQFNGSPASGIAIKLATGANALDTAKAIRQTIANLEPFMPQGMKVVYPYDTTPVVSASIHEVVKTLGEAILLVFLVMYLFLQNFRATLIPTIAVPVVLLGTFGVLAAFGFSINTLTMFGMVLAIGLLVDDAIVVVENVERVMAEEGLSPREAARKSMGQIQGALVGIAMVLSAVFLPMAFFGGSTGVIYRQFSITIVSAMALSVIVALILTPALCATMLKPIEKGDHGEHKGGFFGWFNRMFLSTTHGYERGVASILKHRAPYLLIYVVIVAGMIWMFTRIPTAFLPDEDQGVLFAQVQTPPGSSAERTQVVVDSMREYLLEKESSSVSSVFTVTGFNFAGRGQSSGMAFIMLKPWEERPGGENSVFELAKRAQMHFFSFKDAMVFAFAPPSVLELGNATGFDLFLQDQAGVGHEVLLQARNKFLMLAAQNPALQRVRPNGMSDEPQYKLEIDDEKASALGVSLADINSTVSIAWGSSYVNDFIDRGRVKRVYLQGRPDARMNPDDLSKWYVRNDKGEMVPFNAFATGKWEYGSPKLERYNGVPAMEILGEPAPGLSSGDAMAAVEEIVKQLPKGVGYSWTGLSYEERLSGSQAPALYALSLLVVFLCLAALYESWSIPFSVMLVVPLGVIGALLATSMRGLSNDVFFQVGLLTTIGLSAKNAILIVEFAKELHEQGKGIVEAAIEACRMRLRPIVMTSLAFILGVVPLAISTGAGSGSQHAIGTGVIGGMVTATVLAIFWVPLFYVAVSTLFKDEASKQQASVEKGQ
partner: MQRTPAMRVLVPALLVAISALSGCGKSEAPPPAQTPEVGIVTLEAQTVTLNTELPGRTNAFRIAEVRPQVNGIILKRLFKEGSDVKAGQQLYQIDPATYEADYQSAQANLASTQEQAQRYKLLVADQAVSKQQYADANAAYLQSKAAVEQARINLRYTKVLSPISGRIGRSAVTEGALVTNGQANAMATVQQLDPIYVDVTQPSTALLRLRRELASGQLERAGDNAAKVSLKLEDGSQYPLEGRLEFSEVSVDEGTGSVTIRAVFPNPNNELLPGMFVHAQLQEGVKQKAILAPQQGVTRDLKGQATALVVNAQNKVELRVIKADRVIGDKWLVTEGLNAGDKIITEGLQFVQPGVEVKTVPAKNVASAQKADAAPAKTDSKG
B2: Multidrug resistance protein MexA (Pseudomonas aeruginosa (strain ATCC 15692 / PAO1 / 1C / PRS 101 / LMG 12228)), P52477 (parent)
chain: B1 partner
partner: B1 chain

Variants of: B1
Conditions: with mexa_pseae mexA, P52477

Variant	effect of a mutation on the interaction
G220S	decreasing interaction strength

Variants of: B2
Conditions: with mexb_pseae mexB, P52002

Variant	effect of a mutation on the interaction
V66M	increasing interaction strength
V259F	increasing interaction strength
